Reference: patent US20230129812A1 (ACCELERON PHARMA, published 2023)

Experiments:
GDF11 = molecular target: T1, GDF11 (UniProt O95390 299-407); experiment: SPR (Biacore); ligand coupled, receptor flowed over (as reported in WO2006/012627)
T1 construct: also called BMP11
T1 sequence (looked up): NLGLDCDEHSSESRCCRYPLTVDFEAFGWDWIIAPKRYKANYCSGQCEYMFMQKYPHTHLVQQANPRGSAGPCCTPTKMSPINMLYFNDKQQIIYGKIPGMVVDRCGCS
Source text: (§1) Other variants have been generated and tested, as reported in WO2006/012627 (incorporated herein by reference in its entirety). See, e.g., pp. 59-60, using ligands coupled to the device and flowing receptor over the coupled ligands. […] Table 11 showing data with respect to these variants is reproduced below: […]

activin A = molecular target: T2, activin A (UniProt P08476 311-426); experiment: as above
T2 construct: also called ActA
T2 sequence (looked up): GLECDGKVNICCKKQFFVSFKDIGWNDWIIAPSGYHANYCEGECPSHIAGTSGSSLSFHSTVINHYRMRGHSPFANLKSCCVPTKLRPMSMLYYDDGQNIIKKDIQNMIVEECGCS
Source text: as §1

B1: Soluble ActRIIB-Fc WT (64A) (Fc fusion, UniProt Q13705 19-119, looked up, not shown: a dimerising Fc or GST)
chain: SGRGEAETRECIYYNANWELERTNQSGLERCEGEQDKRLHCYASWANSSGTIELVKKGCWLDDFNCYDRQECVATEENPQVYFCCCEGNFCNERFTHLPEA
notes: Whole entry named
- Kd (GDF11): 260 nM
- Kd (activin A): 180 nM

B2: Soluble ActRIIB-Fc D80G (Table 11) (Fc fusion, UniProt Q13705 19-119, looked up, not shown: a dimerising Fc or GST)
chain: SGRGEAETRECIYYNANWELERTNQSGLERCEGEQDKRLHCYASWANSSGTIELVKKGCWLGDFNCYDRQECVATEENPQVYFCCCEGNFCNERFTHLPEA
- binding result (GDF11): no binding
- binding result (activin A): no binding

B3: Soluble ActRIIB-Fc K74A (Table 11) (Fc fusion, UniProt Q13705 19-119, looked up, not shown: a dimerising Fc or GST)
chain: SGRGEAETRECIYYNANWELERTNQSGLERCEGEQDKRLHCYASWANSSGTIELVAKGCWLDDFNCYDRQECVATEENPQVYFCCCEGNFCNERFTHLPEA
- Kd (GDF11): 5.3 nM
- Kd (activin A): 4.35 nM

B4: Soluble ActRIIB-Fc D80A (Table 11) (Fc fusion, UniProt Q13705 19-119, looked up, not shown: a dimerising Fc or GST)
chain: SGRGEAETRECIYYNANWELERTNQSGLERCEGEQDKRLHCYASWANSSGTIELVKKGCWLADFNCYDRQECVATEENPQVYFCCCEGNFCNERFTHLPEA
- binding result (GDF11): no binding
- binding result (activin A): no binding

B5: Soluble ActRIIB-Fc D80K (Table 11) (Fc fusion, UniProt Q13705 19-119, looked up, not shown: a dimerising Fc or GST)
chain: SGRGEAETRECIYYNANWELERTNQSGLERCEGEQDKRLHCYASWANSSGTIELVKKGCWLKDFNCYDRQECVATEENPQVYFCCCEGNFCNERFTHLPEA
- binding result (GDF11): no binding
- binding result (activin A): no binding

B6: Soluble ActRIIB-Fc E37A (Table 11) (Fc fusion, UniProt Q13705 19-119, looked up, not shown: a dimerising Fc or GST)
chain: SGRGEAETRECIYYNANWALERTNQSGLERCEGEQDKRLHCYASWANSSGTIELVKKGCWLDDFNCYDRQECVATEENPQVYFCCCEGNFCNERFTHLPEA
- binding result (GDF11): no binding
- binding result (activin A): no binding

B7: Soluble ActRIIB-Fc K55A (Table 11) (Fc fusion, UniProt Q13705 19-119, looked up, not shown: a dimerising Fc or GST)
chain: SGRGEAETRECIYYNANWELERTNQSGLERCEGEQDARLHCYASWANSSGTIELVKKGCWLDDFNCYDRQECVATEENPQVYFCCCEGNFCNERFTHLPEA
- binding result (GDF11): no binding

B8: Soluble ActRIIB-Fc D80F (Table 11) (Fc fusion, UniProt Q13705 19-119, looked up, not shown: a dimerising Fc or GST)
chain: SGRGEAETRECIYYNANWELERTNQSGLERCEGEQDKRLHCYASWANSSGTIELVKKGCWLFDFNCYDRQECVATEENPQVYFCCCEGNFCNERFTHLPEA
- binding result (GDF11): no binding
- binding result (activin A): no binding

B9: Soluble ActRIIB-Fc D80N (Table 11) (Fc fusion, UniProt Q13705 19-119, looked up, not shown: a dimerising Fc or GST)
chain: SGRGEAETRECIYYNANWELERTNQSGLERCEGEQDKRLHCYASWANSSGTIELVKKGCWLNDFNCYDRQECVATEENPQVYFCCCEGNFCNERFTHLPEA
- binding result (GDF11): no binding
- binding result (activin A): no binding

B10: Soluble ActRIIB-Fc WT (64R) (Fc fusion, UniProt Q13705 19-119, looked up, not shown: a dimerising Fc or GST)
chain: SGRGEAETRECIYYNANWELERTNQSGLERCEGEQDKRLHCYASWRNSSGTIELVKKGCWLDDFNCYDRQECVATEENPQVYFCCCEGNFCNERFTHLPEA
notes: Whole entry named
- Kd (GDF11): 86 nM

B11: Soluble ActRIIB-Fc D80M (Table 11) (Fc fusion, UniProt Q13705 19-119, looked up, not shown: a dimerising Fc or GST)
chain: SGRGEAETRECIYYNANWELERTNQSGLERCEGEQDKRLHCYASWANSSGTIELVKKGCWLMDFNCYDRQECVATEENPQVYFCCCEGNFCNERFTHLPEA
- binding result (GDF11): no binding
- binding result (activin A): no binding

B12: Soluble ActRIIB-Fc D80R (Table 11) (Fc fusion, UniProt Q13705 19-119, looked up, not shown: a dimerising Fc or GST)
chain: SGRGEAETRECIYYNANWELERTNQSGLERCEGEQDKRLHCYASWANSSGTIELVKKGCWLRDFNCYDRQECVATEENPQVYFCCCEGNFCNERFTHLPEA
- binding result (GDF11): no binding
- binding result (activin A): no binding

B13: Soluble ActRIIB-Fc +15tail (Fc fusion, UniProt Q13705 19-134, looked up)
chain: SGRGEAETRECIYYNANWELERTNQSGLERCEGEQDKRLHCYASWANSSGTIELVKKGCWLDDFNCYDRQECVATEENPQVYFCCCEGNFCNERFTHLPEAGGPEVTYEPPPTAPT
notes: not shown: linker and Fc
- Kd (activin A): ~26 nM
